{"source": "the DeepSol protein solubility set", "data": [{"test": "soluble on expression in E. coli; label from the status in PepcDB or PDB records", "values": [{"sequence": "MSTARFADPDQIRAGFSRAMSQMYQHEVPLYGTLMELVSEVNAQVMSRDSQVLNSLRQTGEIQRLDMERHGAIRVGTAQELATLARLFAVMGMQPVGYYDLTAAGVPVHSTAFRAVHEQALQVSPFRVFTSLLRLELIESDSLREFASRVLAKRTIFTPGALALIEKHEADGGLSEPDAAEFIQQALETFRWHHTATVSLDEYRQLNAQHRLIADVVAFRGPHINHLTPRTLDIDAVQSGMPGKGITPKAVVEGPPPRQCPILLRQTSFKALEEPISFIGQGGSQSGSHSARFGEIEQRGAALTPKGRELYDRLLNEARDALGEFPNEANAVRYAGLLEKAFQAFPDSHDEMRAQGLAYFRYFPTDTGVAVRVSGTLEQLIEAGHVRFEPLAYEDFLPVSAAGIFQSNLGDNAQAHYAANSNRQDFERALGRGTLDELALYADTQRRSLEDCAEVLGLNESLEHHHHHH", "soluble on expression in E. coli": "not soluble"}, {"sequence": "MSTDAFYSTAFPTIPGTPNLLGYTAYSPQSIFNDSRPASSVNNTPSTSFNSSIHSRNRSIAMLHSISHILSNDDSLGSTTESSTPSTPEIHPSNAPAKKTIPLVLISDTDEECDKKSRKRRIRSKSSKKSRGIRKSRKHEASDYRKKIMLGTFEGRKIVLKLMK", "soluble on expression in E. coli": "not soluble"}, {"sequence": "MSTFSLLRLPQKTLKNVILQMGHIELICTSLLSNKTKHFIREFCIFKASRFSIELNQSVQFKMFNNGRWSEYSFKNGMICITSFGIIQITMTFRTPQFNAGSWFNHFLCVLSPSKIESVTVTDAFDELRFQLVKKFLEKIQFMVLWIRTTSATSHMVRLFSEVLPVDQFWLSQDDRLNSSQFSALRPVLSKELETIFIDNRMPLNDLLITCSTAIHIIKSPLTDKEINVFLKHWMTGLKPELEHIYIEKSGVFNQTQLLDGINHDAPTDRKFKMYGNDAFRGIDLHLGQGIKATLVYENDFFHSKIHIASHNSKYISFE", "soluble on expression in E. coli": "not soluble"}, {"sequence": "MSTIAAGRFAKDDVDQDTKWWKEYPSKHYIERARPQNYYDEFVQNAWSKSKRLARAASFTNLTYIKDKDMDFPIRKSDSVSTLAPSLALPQYCREAQRIVHTVPVYKPTVHDWYNKSYSDARWRDTHREINKPYKPLDTYISPASSHVPYYSFQTKRIFFDEKARQLAPYLKESQRYMDRYVSSRLKADDYANRFAYTAYEWRKPQDHSFNREFMTTQGVFVATPTGIPHQHYDKFGMRRLYKRTGRFFF", "soluble on expression in E. coli": "not soluble"}, {"sequence": "MSTIHTPLTYNEINGKPFGLDYELAKQFADYLGVKLKVTVRQNISQLFDDLDNGNADLLAAGLVYNSERVKNYQPGPTYYSVSQQLVYKVGQYRPRTLGNLTAEQLTVAPGHVVVNDLQTLKETKFPELSWKVDDKKGSAELMEDVIEGKLDYTIADSVAISLFQRVHPELAVALDITDEQPVTWFSPLDGDNTLSAALLDFFNEMNEDGTLARIEEKYLGHGDDFDYVDTRTFLRAVDAVLPQLKPLFEKYAEEIDWRLLAAIAYQESHWDAQATSPTGVRGMMMLTKNTAQSLGITDRTDAEQSISGGVRYLQDMMSKVPESVPENERIWFALAAYNMGYAHMLDARALTAKTKGNPDSWADVKQRLPLLSQKPYYSKLTYGYARGHEAYAYVENIRKYQISLVGYLQEKEKQATEAAMQLAQDYPAVSPTELGKEKFPFLSFLSQSSSNYLTHSPSLLFSRKGSEEKQNLEHHHHHH", "soluble on expression in E. coli": "soluble"}, {"sequence": "MSTKELEERKVCFFCKILGFLSFPAIKIRIGTPANTISRHLTGFASYCIHLAVGVAHTRPEPELADDSRCYGNILDLVKRKKVTNWTQTRLVVEGKLGEGLRGIAYKVKHRNTMKCLKLLPLSWTSRNKEALEDLVALRSLKTIKKETPNYLTFFDSFVLTNLPASTQDKLNQLDPQCPATHYLGLLVELGSNSLDNTMLTTAVEGLSIVKQLVLSLVIAKRRLDTNHNDVHPGNVLVKRSASPKTLKYTLDGKVIRIPSHGLVVGIIDFSEASFGRANGNSDVGFLSFITEEISKTLSKAENRTFQTAIDGLTDARSITAIYPNASIFKKH", "soluble on expression in E. coli": "not soluble"}, {"sequence": "MSTLEIKNLHAQVVPADESAAPKPILKGVNLTIKSGETHAIMGPNGSGKSTLAYTLSGHPRYEVTDGEVLLDGENILDMDIDERARAGLFLAMQYPTEIPGVSMANFLRSAATAVRGEAPKLREWVKEVKQAQQDLKIDKAFNERSVNEGFSGGEKKRHEVLQLDLLQPKFAVMDETDSGLDVDALRIVSEGINRYQEKSNGGILMITHYKRILNYVQPDFVHVFANGQIITSGGPELADDLEANGYDRFLA", "soluble on expression in E. coli": "not soluble"}, {"sequence": "MSTLLKSAKSIVPLMDRVLVQRIKAQAKTASGLYLPEKNVEKLNQAEVVAVGPGFTDANGNKVVPQVKVGDQVLIPQFGGSTIKLGNDDEVILFRDAEILAKIAKD", "soluble on expression in E. coli": "not soluble"}, {"sequence": "MSTPIPPSSPPSTPTTRANNRTKSFSGTGTVATTACICGNVPIALSANTLADSLKVSPLYKQQDSARWNAAAQVYRTSRAVSPTLEEKEKFGFDNAYINQMISPKMSIPKTPISLEEIADMNRKRHEVEGGVIPSDDDVGPLELEAIAAVHELAHEVQDISVSEMLPRTSDLIFVNVKTQEGSPYTLELTMKGWRIASSHTDCMNGDYTKISLHTKYYRNARELLKFISPDHATRFNECVAQKLSKLAEVAVQ", "soluble on expression in E. coli": "not soluble"}, {"sequence": "MSTPRQILAAIFDMDGLLIDSEPLWDRAELDVMASLGVDISRRNELPDTLGLRIDMVVDLWYARQPWNGPSRQEVVERVIARAISLVEETRPLLPGVREAVALCKEQGLLVGLASASPLHMLEKVLTMFDLRDSFDALASAEKLPYSKPHPQVYLDCAAKLGVDPLTCVALEDSVNGMIASKAARMRSIVVPAPEAQNDPRFVLSNVKLSSLTELTAKDLLG", "soluble on expression in E. coli": "soluble"}, {"sequence": "MSTSLTIRLVAEADWPALHALDQIIWTKKNTPAEIQPLSLAAYQEKMKDETIFVAISGQQLAGFIEVHPPTSLAAHQKQWLLSIGVSPDFQDQGIGGSLLSYIKDMAEISGIHKLSLRVMATNQEAIRFYEKHGFVQEAHFKEEFYINGHYCDDYQYAYFIEK", "soluble on expression in E. coli": "soluble"}, {"sequence": "MSTTFAARLNRLFDTVYPPGRGPHTSAEVIAALKAEGITMSAPYLSQLRSGNRTNPSGATMAALANFFRIKAAYFTDDEYYEKLDKELQWLCTMRDDGVRRIAQRAHGLPSAAQQKVLDRIDELRRAEGIDA", "soluble on expression in E. coli": "soluble"}, {"sequence": "MSTVTITDLARENVRNLTPYQSARRLGGNGDVWLNANEYPTAVEFQLTQQTLNRYPECQPKAVIENYAQYAGVKPEQVLVSRGADEGIELLIRAFCEPGKDAILYCPPTYGMYSVSAETIGVECRTVPTLDNWQLDLQGISDKLDGVKVVYVCSPNNPTGQLINPQDFRTLLELTRGKAIVVADEAYIEFCPQASLAGWLAEYPHLAILRTLSKAFALAGLRCGFTLANEEVINLLMKVIAPYPLSTPVADIAAQALSPQGIVAMRERVAQIIAEREYLIAALKEIPCVEQVFDSETNYILARFKASSAVFKSLWDQGIILRDQNKQPSLSGCLRITVGTREESQRVIDALRAEQV", "soluble on expression in E. coli": "soluble"}, {"sequence": "MSTVVDRLQRMTLNLTSPDGNLCATVDAERRARFHLRDETRFERYDAPTLSTQVKALLTTMNSGRELGIKRAYAADGREPAAVNGTHWDAAHRRFEAALATLELEGYSEDGLLLLQSGFDLSGYRVTIDRDDLPRTSPEQFLRELSGAYRDLLAHRRQRRAELLREHLGT", "soluble on expression in E. coli": "not soluble"}, {"sequence": "MSVDSEETSSNGVVPPNSLPPKPEARFGRHVRSFSVDSDFFDDLGVTEEKFIATSSGEKKKGNHHHSRSNSMDGEMSSASFNIESILASVSGKDSGKKNMGMGGDRLAELALLDPKRAKRILANRQSAARSKERKIRYTGELERKVQTLQNEATTLSAQVTMLQRGTSELNTENKHLKMRLQALEQQAELRDALNEALRDELNRLKVVAGEIPQGNGNSYNRAQFSSQQSAMNQFGNKTNQQMSTNGQPSLPSYMDFTKRG", "soluble on expression in E. coli": "soluble"}, {"sequence": "MSVEEEKGLLARADEFLQAFKKGAEFTQELLRENERLRFRTLQLEADQKGEGVAAALAVENRKLAARVEELEREIAEIIGQIRQIEAENNDFAARYVEIEEENNNLANLYIASYQLHSTLDFSEVLQIITEIIINLIGAEEFAVMLVDEKTGSLDAVAAEGISLEELPRVRLGEGVIGIAAGTGENYFAEGPETYERDLLRPMVCIPLKIKEHVIGVIAIYKLLIQKKSFASVDYELFTLLAGHAATAIFSSRIYSDSERKLSTMQGFINLLTT", "soluble on expression in E. coli": "not soluble"}, {"sequence": "MSVFHDEVEIEDFEFDEEKDVYHYPCPCGDRFEIPREMLEMGEDVAQCPSCSLLIRVIYDPEDFVKLETISTSKPIAEPV", "soluble on expression in E. coli": "not soluble"}, {"sequence": "MSVSFMELGSADSAEAAANKVAHHVEQMMETSDFFDRLTQHGTTPVSGLGEKFYVKGAPEFVSTRRIPIPGELQMQMSNIHSEFSMGFFTQISRVWVVIDNNLYMWNYETNDDLAFFDSSDAAILKVSLVNIKPGVFEPEIQYGLVVGTISDICLYPVFDFVENGASSISIDSKRCFKIALDGATVNDISYTSNGRVFYTADDQLFEFVYEKQNGWFGSTNHKCRGVNQTASILGTLISLPFFGSSKEPLDQITIDKSRNIMYLLGRAGTVSVWDLGADGAACAKFLSVPISKIAHEAHILTQFGHDETSFHSITSIKALEASQSAALNLVATTAKGVRLYFSVSTGPQSTMAMFNNSGTPNERNRPQTSVRPQCLRVAHVRFAPGVTPASIYGDGPNGVSVVYADECTRL", "soluble on expression in E. coli": "not soluble"}, {"sequence": "MSVTYDDSVGVEVSSDSFWEVGNYKRTVKRIDDGHRLCSDLMNCLHERARIEKAYAQQLTEWARRWRQLVEKGPQYGTVEKAWMAFMSEAERVSELHLEVKASLMNDDFEKIKNWQKEAFHKQMMGGFKETKEAEDGFRKAQKPWAKKLKEVEAAKKAHHAACKEEKLAISREANSKADPSLNPEQLKKLQDKIEKCKQDVLKTKEKYEKSLKELDQGTPQYMENMEQVFEQCQQFEEKRLRFFREVLLEVQKHLDLSNVAGYKAIYHDLEQSIRAADAVEDLRWFRANHGPGMAMNWPQFEEWSADLNRTLSRREKKKATDGVTLTGINQTGDQSLPSKPSSTLNVPSNPAQSAQSQSSYNPFEDEDDTGSTVSEKDDTKAKNVSSYEKTQSYPTDWSDDESNNPFSSTDANGDSNPFDDDATSGTEVRVRALYDYEGQEHDELSFKAGDELTKMEDEDEQGWCKGRLDNGQVGLYPANYVEAIQ", "soluble on expression in E. coli": "soluble"}, {"sequence": "MSVVALVLAAGSSVRFGADKRRSLMADGRSLLVHSVESACAVFDDVRVVLREGERGVDLGLPARCRVVSSPNFTLGMGHSLAAGAASLADSEAQAVAILLGDMPWVASATLDLLAREASGSTIVLPCHAGRQGHPVLFGRDFWPALARLKGDEGARSVVKANPAVCVRLEVQDAGVLQDVDRPDAVRPLEHHHHHH", "soluble on expression in E. coli": "soluble"}, {"sequence": "MSWNCLLPIFVGFFVLFYEGQCQPARWTQQPGGQNPQPGASFPPNMNPVTNGPGSWTQKPGGYNNGPGSGSFKSTKPPRGLVYYQPKNYPYKPGKGGKYMHADPILPNANERLSAQSDQYTVSDGITGDWSKIVANSKGFYVLHPVQTKSEEDIFDPYTIGQVIGYLYEVQEFGGKKPPSGKYTIELMGKKIPDHLKKKRSLFGSPDRTRRATLVFKKKEQVKSTL", "soluble on expression in E. coli": "not soluble"}, {"sequence": "MSYGLIIVLMIILGIGLWHTKKYHRAVVNQVAHVWITKNAFEHTALGMAIVSPDCRFLKVNRAYGEITGYTRPELLKMAVKELTHPEDQEKDTPYLQEVFAGNIHSFTTVKRYIHKNGSTIWVRSTISAVRTERGNLEHHHHHH", "soluble on expression in E. coli": "soluble"}, {"sequence": "MSYKEGDVLVTNGEQSPGYKIVEIKGLVVGITVRSRGLGKNIIASLRSLLGGEIKEYVELAEQARLQALQRMVDNAKALGANAVVNVRFDSNELSEAMDEIIAYGTAVVVEKSS", "soluble on expression in E. coli": "soluble"}]}]}
